Tests used:
Assay in all cases: potentiometry
Conditions in all cases: 25 °C (± 0.2 °C); 0.1 M (KCl); none (4 mM HCl, 0.1 M KCl); peptide 0.001 M; metal-free peptide, unstructured (random-coil CD spectrum)
[1] = target: Asp129 (UniProt position 129, …)
[2] = target: His124 (UniProt position 124, …)
[3] = target: Asp129 (UniProt position 129, …); remark: listed apart in the source
[4] = target: His124 (UniProt position 124, …); remark: listed apart in the source
[5] = target: Asp129 (UniProt position 129, …); remark: listed apart in the source

For HEARQDEA [HSPB1(124-131) peptide L3, Ac-HEARQDEA-NH2 (Homo sapiens; E126A;H131A)], the pKa [1] was 3.47 and the pKa [2] was 6.71.

Protein HEERQDEA [HSPB1(124-131) peptide L2, Ac-HEERQDEA-NH2 (Homo sapiens; H131A)] has a pKa [3] of 3.60 and a pKa [4] of 7.00.

HEARQDEH [HSPB1(124-131) peptide L4, Ac-HEARQDEH-NH2 (Homo sapiens; E126A)] showed a pKa [5] of 3.26.

Reference: article PMC12444091
